Laboratory results reported in the supplement of paper PMC9170038.

Test system: K4 kissing-loop RNA reporter
Experiment: apparent KD of K4 kissing-loop reporter; higher = weaker reporter binding
Settings: Eterna round: R107
Protocol: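 RNA-MaP round R107: designed RNA switches with theophylline, tryptophan, arginine or FMN aptamers are transcribed on-chip within common flanks. They are titrated with a labelled K4 kissing-loop RNA reporter in RNA-MaP buffer (100 mM Tris pH 7.5, 80 mM KCl, 4 mM MgCl2), without ligand or with the indicated ligand. Median apparent KD per design.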

[1] = input ligand: theophylline 20 uM
[2] = input ligand: tryptophan 2.4 mM
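Also: bound reporter read as fluorescence of individual clusters on recovered sequencing chips by microscopy, with normalized cluster intensities fitted with a binding model.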

Row | Sequence | apparent KD of K4 kissing-loop reporter (input ligand: FMN 200 uM) [nM] | apparent KD of K4 kissing-loop reporter (input ligand: arginine 13.2 mM) [nM] | apparent KD of K4 kissing-loop reporter (input ligand: none) [nM] | apparent KD of K4 kissing-loop reporter [1] [nM] | apparent KD of K4 kissing-loop reporter [2] [nM]
1 | UCGGCAAAGUCGGCCGCCACUCCGGGCCCUAUAAAUGGGCGCAGUGAUGUUGCGGCUAGGCCUCUGAGGACCGGGACUUUGUAAA [Atordied] | 185 | 63.1 | 54.5 | 61.7 | 219
2 | UCUGUUGUAUAUGAUACCAGCAGUGAGAGAUGAGAAGUAUAGUGAUGUUAUAUGAGUGAAUGCCCUUGGCAGCGUGUGCGUGUGG [SSTheophylB.aD] | 101 | 112 | 94 | 134 | 87.5
3 | UGAACCCGGUCGGCCGCCACUCUGAGAACCAUCGCCCUACGUGCAGUGAUGUUGUACCUAAUGAGGAGGACCGGGACUGGGCGGC [theeternabot_sameState_KL_Trp_B_36] | 316 | 277 | 360 | 204 | 223
4 | UGAACUGUCUGCGAUACCAGCUAAGGAGUGAUGUUCCGGCUCGACGAAACGUCGAGCCAUAGCCCUUGGCAGCGCAGACAGUUCA [#28 K4 Theophylline B Same State] | 387 | 160 | 334 | 721 | 272
5 | UGACAUUGCUCAGAUACCAGACCUGAGGAUCACCCGGGUGCCAAAACGUACUAAAUAAAGGUCCCUUGGCAGCUGAGCAAUGUCU [TheoBX 13] | 56.9 | 43.7 | 65.5 | 49.5 | 89.5
6 | UGACUACAAAAGGAAUAAUCCUAGUGAUGUUAGGAUAUGCUGAUAAGCAGAAGGAACGGAGAUCGAAAGAUCUCAAAUGUAGUCU [whbob_Ex_FMNA__2th191] | 153 | 89.8 | 82.9 | 112 | 86
7 | UGACUGGACUGAAGGAGCGCGCGAGACAAAGUCUCGAACUCCUAGUGAUGUUAGGAAAUAACGCAGGUAGGUCGCAGUCUAGUCU [ArgBS 10 #SwitchBubble #StaticStem #DoubleMagnet] | 225 | 190 | 243 | 209 | 241
8 | UGACUGGACUGAAGGAGCGCGCGAGACAAAGUCUCGAACUCUUAGUGAUGUUAGGAAAUAACGCAGGUAGGUCGCAGUCUAGUCU | 381 | 247 | 332 | 473 | 408
9 | UGACUGGACUGAAGGAGCGCUAAAACUCCUAGUGAUGUUGGGAAAACGAGACAAAGUCUCGAGCAGGUAGGUCGCAGUCUAGUCU [ArgBS 22 #SwitchBubble #StaticStem] | 302 | 196 | 253 | 278 | 258
10 | UGACUGGACUGAAGGAGCGCUAAACUCCUAGUGAUGUUAGGAUAACGAGACAAAGUCUCGAGGCAGGUAGGUCGCAGUCUAGUCU | 128 | 134 | 131 | 137 | 128
11 | UGACUUGCCUGAGGAUAUCUAGGAUAUGGAUAAAAUAAAAUAAUAAUGGAGUGAUGUUCCAGAAGGAGAGAAGGCAGGUAAGUCU [KL-XFMN-B16 #DoubleAptamer #SwitchBubble] | 190 | 116 | 96.1 | 170 | 84
12 | UGAUACCAGACGGCCGCCACUCCCGUAAGUCAAAGACUUACCAAGAGUAUCGUCCAGUGAUGUUGGAGGACCGGGUCUGGUAUCU [FiskerMod 9 - Jieux - Exclusion - Tryptophan B] | 376 | 321 | 330 | 320 | 829
13 | UGAUACCAGACGGCCGCCACUCUUGCAGUCAAAGACUGCUAAAAGGAAAUCGUCCAGUGAUGUUGGAGGACCGGGUCUGGUAUCU [TrypBX 15 #SwitchBubble #Palindromic #StaticStem] | 1420 | 774 | 1370 | 774 | 736
14 | UGAUACCAGACUGAUACCAGCCACAGAGUCAAAGACUCUGAAAGGGAAACCAGUGAUGUUGGCCCUUGGCAGCAGUCUGGUAUCU [TheoBX 23 #SwitchBubble #StaticStem] | 502 | 412 | 493 | 382 | 431
15 | UGAUACCAGACUGAUACCAGCCAGUGAUGUUGGCAAUAUCCAAGGUGAGUCAAAGACUCGGGCCCUUGGCAGCAGUCUGGUAUCU [TheoBX 7 #SwitchBubble #StaticStem] | 146 | 139 | 148 | 152 | 135
16 | UGAUAGGACAGAAGGAGCGGAAGUGAUGUUUCCAAAAGGGUAAGGUGUCAAAAGACACCCUUCCAGGUAGGUCGCUGUCCUAUCU | 93.9 | 109 | 99 | 111 | 86.3
17 | UGAUAGGACAGAAGGAGCGGGAGUGAUGUUCCCAAAAGUAUAAGGUGUCAAAAGACACCCUCCCAGGUAGGUCGCUGUCCUAUCU | 153 | 330 | 353 | 302 | 367
18 | UGAUAGGACAGAAGGAGCGGUAGUGAUGUUACCAAAAGGGUAAGGUGUCAAAAGACACCCUGCCAGGUAGGUCGCUGUCCUAUCU | 103 | 89.9 | 99.1 | 83.4 | 87
19 | UGAUUUAACUGAAGGAGCGGCAAUUGAUAAGGAAAUAUAGUGAUGUUAUAUAAGAGAGAGAGCCAGGUAGGUCGCAGAGGGAGGA [ExArgB.H] | 182 | 105 | 110 | 154 | 145
20 | UGCUUUAUCAGAAGGAGCGGGUUGUUCAUAAUAAUAAUCAGUGAUGUUGAUAUAUGAUGAUUCCAGGUAGGUCGCUGAUAUAGCU [KL-XARG-B2] | 283 | 214 | 273 | 256 | 238
21 | UGGAGUUGACGAAAAGUCAACUCCCGAGAAGGAGCGGACGAAAGUCCAGGUAGGUCGCUCGCUACCAGUGAUGUUGGUACGUAAA | 107 | 143 | 116 | 139 | 101

Row | Sequence | apparent KD of K4 kissing-loop reporter (input ligand: FMN 200 uM) [nM] | apparent KD of K4 kissing-loop reporter (input ligand: arginine 13.2 mM) [nM] | apparent KD of K4 kissing-loop reporter (input ligand: none) [nM] | apparent KD of K4 kissing-loop reporter [1] [nM] | apparent KD of K4 kissing-loop reporter [2] [nM]
22 | UGGAUAUAGUGAUGUUAUAUAGAGAUGGAUACCAGCAGAGAGAAUUGCCCUUGGCAGCCGAAAGAAGUAUCAUUAGAGAAGAAUG [ExTheophyl.Ai] | 208 | 180 | 253 | 214 | 210
23 | UGGAUUAGGACGGCCGCCACUACGCUGGCAUGAGUGAUGUUCUAAGGCUUGUCAAAGAUCCAGAGUAGGACCGGGUCCAAUGACU [theeternabot_exclusion_KL_Trp_B_38] | 293 | 225 | 275 | 261 | 271
24 | UGGUUAAGCAGUGAUGUUGCAAGUGAUGAUACCAGUUAAGAAGAGAACCCUUGGCAGCAUAAAGUGCGCUCUGAUGAGUGUGCUU [whbob_SS_Theo_A_w55] | 165 | 130 | 146 | 176 | 165
25 | UGUACCGAGUCAGGAUAUACCGUCGAAAGACGAAAUGGAGUGAUGUUCCUUAAACUGCGAAAGCAGGUAGAAGGGACUUGGUACU [FmnBS 30 #SwitchBubble #StaticStem #DoubleMagnetSystem] | 165 | 263 | 267 | 263 | 262
26 | UGUACCGAGUCAGGAUAUAGCGUCGAAAGACGAAAUGGAGUGAUGUUCCUUAAACUGCGAAAGCAGCUAGAAGGGACUUGGUACU [FmnBS 28 #SwitchBubble #StaticStem #DoubleMagnetSystem] | 153 | 234 | 246 | 250 | 239
27 | UGUACCGAGUCAGGAUAUGGCGUCGAAAGACGAAUCCUAGUGAUGUUAGUGAUCUGCGAAAGCAGUCCAGAAGGGACUUGGUACU [FmnBS 26 U50] | 199 | 321 | 334 | 307 | 344
28 | UGUAUGUGAUGUGAUACCAGUGAAGAGCCAGUGAUGUUGGUAGAACUGGUAUAUAAAUAACACCCUUGGCAGCACAAUCACGUAC [whbob_Ex_Theo_B_sa99] | 289 | 243 | 286 | 320 | 314
29 | UGUAUGUGAUUUGAUACCAGACCAGCUGGUGGUACCUGAGUGAUGUUCGGGAUGGUUUGGGUCCCUUGGCAGCAAAUCGCAUACU [KL-SSTheoB20] | 251 | 144 | 164 | 148 | 170
30 | UGUCAUGGAAACAUGAACGUUAAAAUAAAUCGAGGACCGGUACGGCCGCCACUCGUAUAGCGGUCAGUGAUGUUGACUGUAGUAC [KL-SSTryp-A form2 sub11 #dotplot2>1] | 107 | 110 | 109 | 109 | 101
31 | UGUCAUUGGUCGGCCGCCACUAUAAUAAAAGAGUGAUGUUCUAAAAGACGGACAAAAGUCUGUCGUAGGACCGGGACCGAUGACU [TrypBS 26 #SwitchBubble #StaticStem] | 1100 | 551 | 805 | 916 | 455
32 | UGUCAUUGGUCGGCCGCCACUAUAUAAAAGAGUGAUGUUCUAAAGACGGAUCGAAAGAUCUGUCAUAGGACCGGGACCGAUGACU [TrypBS 20 #SwitchBubble #StaticStem] | 293 | 204 | 308 | 294 | 1140
33 | UGUCAUUGGUCGGCCGCCACUUCAAGGUCAAAGACCAGAGUGAUGUUCUUGCACAAAGUGCUUAGAAGGACCGGGACCGAUGACU [TrypBS 13 #SwitchBubble #K4Middle] | 738 | 467 | 625 | 413 | 622
34 | UGUCAUUGGUCGGCCGCCACUUCGUAUGAAGUGAUGUUUUGUAGAUUGUGUUGAAAGGUAUGGUGAAGGACCGGGACCGAUGACU [FiskerMod 22 - Jieux - Same State - Tryptophan B] | 516 | 266 | 765 | 203 | 508
35 | UGUCAUUGGUCUGAUACCAGAAGAAUCUGGAGUGAUGUUCCAAGUCGAUCAAAAGAUCGCUUCCCUUGGCAGCAGACCGAUGACU [TheoBS 24 #SwitchBubble 13 #StaticStem] | 315 | 291 | 300 | 188 | 298
36 | UGUCAUUGGUCUGAUACCAGCUUGAUCGGAAAACGAUCUGCUGGAGUGAUGUUCCAAUAAAGCCCUUGGCAGCAGACCGAUGACU [TheoBS 7 #SwitchBubble #StaticStem] | 854 | 569 | 991 | 961 | 763
37 | UGUCAUUGGUCUGAUACCAGUUGAUAAACUGGAGUGAUGUUCCAAGAACGAGAAACUCGCAACCCUUGGCAGCAGACCGAUGACU [TheoBS 17 #SwitchBubble 13 #StaticStem] | 302 | 66.9 | 170 | 400 | 132
38 | UGUGUUGUUUUGAUGUUUGUUGUAAAAUGGCAGGAUAUCGUAGAGGCGAGAAGGGCUUUUAUGCGUUAUGAGUGAUGUUUGUAGG [zvvczmullin] | 338 | 283 | 352 | 340 | 263
39 | UGUGUUUACCUGACUCAGUGAUGUUGAGAAGGAGCGUGCUAAGGCACAGGUAGGUCGCUCAACCUAAAUUCAGGUGAGCACUAAA | 305 | 351 | 197 | 274 | 207
40 | UGUUAUGUAUCAGGAUAUUAGUGAUGUUUGUUUAUGUUAGUGAUGUUGAUAUUUGUUUUAUGUAUUUAAGAAGGGAUUGAGAUGU [dcdmullin] | 55.4 | 19.8 | 45.1 | 27.7 | 50.9
41 | UGUUUUUACUGAAGGAGCGGCAAUUGAUACGUAGAUAUAGUGAUGUUAUAUAAGAUAGAGAGCCAGGUAGGUCGCAGAUUUUUUC [ExArgB.Y] | 179 | 201 | 164 | 172 | 136
42 | UUAAGGGUCCGAGGAUAUCUCCCAGUGAUGUUGGGCGAUACGGCCCUUAAGACUAAUGGUUGAAGGAGAGAAGGCGGCUCCCGAU [Edmaisle] | 146 | 120 | 128 | 136 | 112
